Reference: patent US20260132197A1 (NANJING LEGEND BIOTECH, published 2026)
Residue numbers refer to the chain shown, from its start. Names and notes keep the numbering of the source.

Tests used:
[1] = target: T1, wild type human CD47 (Acro Biosystems, cat. no. CD7-H5227) (human, UniProt Q08722 19-139); assay: SPR, IgG captured, CD47 in flow; exp 1
T1 construct: Bought protein used as SPR analyte; also called Human CD47 wt; wild-type CD47

[2] = target: T2, Human CD47-C33G (human, UniProt Q08722 19-135); assay: SPR, IgG captured, CD47 in flow; exp 1
T2 construct: also called CD47 mutein with C33G mutation

[3] = target: T1, wild type human CD47 (Acro Biosystems, …); assay: SPR, IgG captured, CD47 in flow; exp 2
[4] = target: T2, Human CD47-C33G; assay: SPR, IgG captured, CD47 in flow; exp 2
[5] = target: T1, wild type human CD47 (Acro Biosystems, …); assay: SPR, IgG captured, CD47 in flow; exp 3
[6] = target: T2, Human CD47-C33G; assay: SPR, IgG captured, CD47 in flow; exp 3
[7] = target: T1, wild type human CD47 (Acro Biosystems, …); assay: SPR, IgG captured, CD47 in flow; exp 4
[8] = target: T2, Human CD47-C33G; assay: SPR, IgG captured, CD47 in flow; exp 4
[9] = target: T1, wild type human CD47 (Acro Biosystems, …); assay: SPR, IgG captured, CD47 in flow; exp 1; remark: listed apart in the source
[10] = target: T2, Human CD47-C33G; assay: SPR, IgG captured, CD47 in flow; exp 1; remark: listed apart in the source
[11] = target: T1, wild type human CD47 (Acro Biosystems, …); assay: SPR, IgG captured, CD47 in flow; exp 2; remark: listed apart in the source
[12] = target: T2, Human CD47-C33G; assay: SPR, IgG captured, CD47 in flow; exp 2; remark: listed apart in the source
[13] = target: T1, wild type human CD47 (Acro Biosystems, …); assay: SPR, IgG captured, CD47 in flow; exp 3; remark: listed apart in the source
[14] = target: T2, Human CD47-C33G; assay: SPR, IgG captured, CD47 in flow; exp 3; remark: listed apart in the source
[15] = target: T1, wild type human CD47 (Acro Biosystems, …); assay: SPR, IgG captured, CD47 in flow; exp 4; remark: listed apart in the source
[16] = target: T2, Human CD47-C33G; assay: SPR, IgG captured, CD47 in flow; exp 4; remark: listed apart in the source
[17] = target: T3, human CD47 on cells (SHP-77 tumor cells, human red blood cells, CCRF-CEM cells, human CD47 CHO-K1 stable cell … (human, UniProt Q08722 19-323)); assay: cell-based or functional assay
[18] = target: T3, human CD47 on cells (SHP-77 tumor …); assay: flow cytometry on human RBCs;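 note: antibody binding measured by flow cytometry as geometric mean fluorescence intensity over a range of antibody concentrations, with EC50 and maximum taken from a sigmoidal dose-response fit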
[19] = target: T3, human CD47 on cells (SHP-77 tumor …); assay: flow cytometry on SHP-77 cells

B1: chimeric antibody 108C10A6 (antibody, V domains shown)
VH: QMQLQQSGPQLVRPGASVKISCKTSGYSFTHHWIHWMKQRPGQGLEWIGMIDPSDSETRLSQKFKDKATLTVDASSSTAYMQLNSPTSEDSALYFCARLGRYYFDYWGQGTTLTVSS
VL: NIVMTQSPRSMSMSVGERVTLSCKASENVGTYISWYQQKPDQSPKLLIYGASNRYTGVPDRFTGSGSGTDFTLTISTVQAEDLADYHCGESYGHLYTFGGGTKLEIK
notes: Chimeric antibody with mouse variable domains; captured through human Fc; also called VH / VL
[1]
  Kd: 0.2 nM
  koff: 0.00032 s⁻¹
  kon: 1.5e+06 M⁻¹ s⁻¹
[2]
  Kd: 0.92 nM
  koff: 0.00068 s⁻¹
  kon: 740000 M⁻¹ s⁻¹
[3]
  Kd: 0.19 nM
  koff: 0.00032 s⁻¹
  kon: 1.6e+06 M⁻¹ s⁻¹
[4]
  Kd: 1 nM
  koff: 0.00073 s⁻¹
  kon: 720000 M⁻¹ s⁻¹
[5]
  Kd: 0.2 nM
  koff: 0.00032 s⁻¹
  kon: 1.6e+06 M⁻¹ s⁻¹
[6]
  Kd: 0.95 nM
  koff: 0.00063 s⁻¹
  kon: 660000 M⁻¹ s⁻¹
[7]
  Kd: 0.17 nM
  koff: 0.0003 s⁻¹
  kon: 1.8e+06 M⁻¹ s⁻¹
[8]
  Kd: 0.67 nM
  koff: 0.00061 s⁻¹
  kon: 920000 M⁻¹ s⁻¹
[9]
  Kd: 0.19 nM
  koff: 0.00032 s⁻¹
  kon: 1.6e+06 M⁻¹ s⁻¹
[10]
  Kd: 1 nM
  koff: 0.00073 s⁻¹
  kon: 720000 M⁻¹ s⁻¹
[11]
  Kd: 0.21 nM
  koff: 0.00034 s⁻¹
  kon: 1.6e+06 M⁻¹ s⁻¹
[12]
  Kd: 1.3 nM
  koff: 0.00074 s⁻¹
  kon: 590000 M⁻¹ s⁻¹
[13]
  Kd: 0.2 nM
  koff: 0.00032 s⁻¹
  kon: 1.6e+06 M⁻¹ s⁻¹
[14]
  Kd: 0.95 nM
  koff: 0.00063 s⁻¹
  kon: 660000 M⁻¹ s⁻¹
[15]
  Kd: 0.17 nM
  koff: 0.0003 s⁻¹
  kon: 1.8e+06 M⁻¹ s⁻¹
[16]
  Kd: 0.67 nM
  koff: 0.00061 s⁻¹
  kon: 920000 M⁻¹ s⁻¹

B2: 108VH5 / 108VL1.M5 (antibody, human IgG4 S228P, kappa, V domains shown)
VH: EVQLVQSGAEVKKPGASVKVSCKASGYSFTHHWIHWVRQAPGQGLEWMGMIDPSDSETRLSQKFKDRVTMTRDTSTSTVYMELSSLRSEDTAVYYCARLGRYYFDYWGQGTLVTVSS
VL: EIVLTQSPATLSLSPGERATLSCRASQSVSSYLAWYQQKPGQAPRLLIYGASNRATGIPARFSGSGSGTDFTLTISSLEPEDFAVYYCGESYGHLYTFGGGTKVEIKR
notes: Full-length IgG4 (S228P), kappa; also called VH5 VL1.M5
[1]
  Kd: 0.83 nM
  koff: 0.00065 s⁻¹
  kon: 780000 M⁻¹ s⁻¹
[2]
  Kd: 3.4 nM
  koff: 0.0012 s⁻¹
  kon: 340000 M⁻¹ s⁻¹
[3]
  Kd: 0.82 nM
  koff: 0.00059 s⁻¹
  kon: 720000 M⁻¹ s⁻¹
[4]
  Kd: 3.9 nM
  koff: 0.0012 s⁻¹
  kon: 310000 M⁻¹ s⁻¹

B3: 108VH5.M8 / 108VL1.M5 (antibody, human IgG4 S228P, kappa, V domains shown)
VH: B2 VH with P53A, L60Y, S61A
VL: B2 VL
notes: Full-length IgG4 (S228P), kappa; also called VH5.M8 VL1.M5
[1]
  Kd: 3 nM
  koff: 0.0022 s⁻¹
  kon: 720000 M⁻¹ s⁻¹
[2]
  Kd: 15 nM
  koff: 0.0044 s⁻¹
  kon: 300000 M⁻¹ s⁻¹

B4: 108VH5.M17 / 108VL1.M5 (antibody, human IgG4 S228P, kappa, V domains shown)
VH: B2 VH with S28T, I34M, P53A, D55E, S56G, L60Y, S61A, K65Q, D66G
VL: B2 VL
notes: Full-length IgG4 (S228P), kappa; also called VH5.M17 VL1.M5
[5]
  Kd: 18 nM
  koff: 0.0084 s⁻¹
  kon: 460000 M⁻¹ s⁻¹
[6]
  Kd: 1300 nM
  koff: 0.084 s⁻¹
  kon: 64000 M⁻¹ s⁻¹

B5: 108VH5.M21 / 108VL1.M5 (antibody, human IgG4 S228P, kappa, V domains shown)
VH: B2 VH with S28T, I34M, P53A, S56F, L60Y, S61A, K65Q, D66G
VL: B2 VL
notes: Full-length IgG4 (S228P), kappa; also called VH5.M21 VL1.M5
[17]
  CCRF-CEM phagocytosis EC50: 0.32 nM
  CCRF-CEM phagocytosis, Phagocytosis (%): 51.9%
[18]
  EC50: 9.2 nM
  Fitted Maximal MFI: 40800 MFI
[19]
  EC50: 11.9 nM
  Fitted Maximal MFI: 37400 MFI
[7]
  Kd: 6.5 nM
  koff: 0.0032 s⁻¹
  kon: 490000 M⁻¹ s⁻¹
[8]
  Kd: 51 nM
  koff: 0.008 s⁻¹
  kon: 160000 M⁻¹ s⁻¹

B6: 108VH5.M5 / 108VL1.M5 (antibody, human IgG4 S228P, kappa, V domains shown)
VH: B2 VH with S28T, P53A
VL: B2 VL
notes: Full-length IgG4 (S228P), kappa; also called VH5.M5 VL1.M5
[1]
  Kd: 1.3 nM
  koff: 0.00096 s⁻¹
  kon: 720000 M⁻¹ s⁻¹
[2]
  Kd: 6.2 nM
  koff: 0.0021 s⁻¹
  kon: 330000 M⁻¹ s⁻¹

B7: 108VH5.M9 / 108VL1.M5 (antibody, human IgG4 S228P, kappa, V domains shown)
VH: B2 VH with P53A, K65Q, D66G
VL: B2 VL
notes: Full-length IgG4 (S228P), kappa; also called VH5.M9 VL1.M5
[1]
  Kd: 1.9 nM
  koff: 0.0014 s⁻¹
  kon: 760000 M⁻¹ s⁻¹
[2]
  Kd: 8.5 nM
  koff: 0.0028 s⁻¹
  kon: 330000 M⁻¹ s⁻¹

B8: 108VH5.M25 / 108VL1.M5 (antibody, human IgG4 S228P, kappa, V domains shown)
VH: B2 VH with S28T, I34M, P53A, S56R, L60Y, S61A, K65Q, D66G
VL: B2 VL
notes: Full-length IgG4 (S228P), kappa; also called VH5.M25 VL1.M5
[18]
  EC50: 4 nM
  Fitted Maximal MFI: 35500 MFI
[19]
  EC50: 7.1 nM
  Fitted Maximal MFI: 39600 MFI
[7]
  Kd: 6.2 nM
  koff: 0.0028 s⁻¹
  kon: 450000 M⁻¹ s⁻¹
[8]
  Kd: 33 nM
  koff: 0.0063 s⁻¹
  kon: 190000 M⁻¹ s⁻¹

B9: 108VH5.M12 / 108VL1.M5 (antibody, human IgG4 S228P, kappa, V domains shown)
VH: B2 VH with S28T, I34M, P53A, L60Y, S61A, K65Q, D66G
VL: B2 VL
notes: Full-length IgG4 (S228P), kappa; also called VH5.M12 VL1.M5
[3]
  Kd: 2.7 nM
  koff: 0.002 s⁻¹
  kon: 730000 M⁻¹ s⁻¹
[4]
  Kd: 15 nM
  koff: 0.0041 s⁻¹
  kon: 280000 M⁻¹ s⁻¹

B10: 108VH5.M10 / 108VL1.M5 (antibody, human IgG4 S228P, kappa, V domains shown)
VH: B2 VH with S28T, P53A, L60Y, S61A, K65Q, D66G
VL: B2 VL
notes: Full-length IgG4 (S228P), kappa; also called VH5.M10 VL1.M5
[3]
  Kd: 2.8 nM
  koff: 0.0019 s⁻¹
  kon: 660000 M⁻¹ s⁻¹
[4]
  Kd: 16 nM
  koff: 0.004 s⁻¹
  kon: 250000 M⁻¹ s⁻¹

B11: 108VH5.M14 / 108VL1.M5 (antibody, human IgG4 S228P, kappa, V domains shown)
VH: B2 VH with S28T, P53A, S56G, L60Y, S61A, K65Q, D66G
VL: B2 VL
notes: Full-length IgG4 (S228P), kappa; also called VH5.M14 VL1.M5
[3]
  Kd: 2.6 nM
  koff: 0.0018 s⁻¹
  kon: 690000 M⁻¹ s⁻¹
[4]
  Kd: 14 nM
  koff: 0.0037 s⁻¹
  kon: 260000 M⁻¹ s⁻¹

B12: 108VH5.M18 / 108VL1.M5 (antibody, human IgG4 S228P, kappa, V domains shown)
VH: B2 VH with S28T, I34M, P53A, D55E, L60Y, S61A, K65Q, D66G
VL: B2 VL
notes: Full-length IgG4 (S228P), kappa; also called VH5.M18 VL1.M5
[5]
  Kd: 12 nM
  koff: 0.002 s⁻¹
  kon: 170000 M⁻¹ s⁻¹
[6]
  Kd: 1200 nM
  koff: 0.087 s⁻¹
  kon: 75000 M⁻¹ s⁻¹

B13: 108VH10.Mo / 108VL10.Me (antibody, V domains shown)
VH: EVQLVESGGGLVQPGGSLRLSCAASGFTFSHHWIHWVRQAPGKGLEWVAMIDASDSETRLSDSFKGRFTISADTSKNTAYLQMNSLRAEDTAVYYCSRLGRYYFDYWGQGTLVTVSS
VL: DIQMTQSPSSLSASVGDRVTITCRASQSISSYLNWYQQKPGKAPKLLIYGASSRYSGVPSRFSGSRSGTDFTLTISSLQPEDFATYYCGESYGHLYTFGQGTKVEIK
notes: 4D5-framework series; also called VH10.Mo VL10.Me
[17]
  CCRF-CEM phagocytosis EC50: 0.18 nM
  CCRF-CEM phagocytosis, Phagocytosis (%): 56.4%
[18]
  EC50: 3.4 nM
  Fitted Maximal MFI: 19200 MFI
[19]
  EC50: 7.9 nM
  Fitted Maximal MFI: 34500 MFI
[15]
  Kd: 5.8 nM
  koff: 0.0032 s⁻¹
  kon: 560000 M⁻¹ s⁻¹
[16]
  Kd: 45 nM
  koff: 0.0093 s⁻¹
  kon: 210000 M⁻¹ s⁻¹

B14: 108VH10.Mp / 108VL10.Me (antibody, V domains shown)
VH: B13 VH with S61V
VL: B13 VL
notes: 4D5-framework series; constant regions not restated for this series; also called VH10.Mp VL10.Me
[17]
  CCRF-CEM phagocytosis EC50: 1.2 nM
  CCRF-CEM phagocytosis, Phagocytosis (%): 47.1%
[18]
  EC50: 23.6 nM
  Fitted Maximal MFI: 16100 MFI
[19]
  EC50: 27.5 nM
  Fitted Maximal MFI: 24100 MFI
[15]
  Kd: 15 nM
  koff: 0.0039 s⁻¹
  kon: 250000 M⁻¹ s⁻¹
[16]
  Kd: 170 nM
  koff: 0.012 s⁻¹
  kon: 72000 M⁻¹ s⁻¹
